Assay: yeast display, Sf9 membrane polyspecificity reagent, FACS + sequencing; frameworks hold sequencing errors
Outline: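 Galactose-induced (36–48 hours) yeast carrying a synthetic nanobody display library were exposed to 10% biotinylated, detergent-solubilized Sf9 membrane reagent at 4 °C for 1 hour. FACS followed streptavidin microbead enrichment, using low and high (top ~1%) gates for expression (anti-HA) and reagent binding (streptavidin). Colony PCR, MiSeq 2 × 250 sequencing and CDR-length filtering followed. Labels for polyreactivity reflect the gate of origin.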

| Sequence | polyreactivity (PSR sort gate) |
| --- | --- |
| QVQLVESGGGLVQAGRSLRLSCAASGIIFEWNGMGWYRQAPGKERELVAALPWSGGSTYYADSVKGRFTISRDNAKNTVYLQMNSLKPEDTAVYYCNAYWKDDFEDGPGRRGMDYWGQGSQVTVSS | low polyreactivity |
| QVQLVESGGGLVQAGRSLRLSCAASGITFESYAMGWYRQAPGKEREFVAAISRSSGSTYYADSVKGRFTISRDNAKNTVYLQMNSLKPEDTAVYYCATRSFRDDGFGRYYYWGQGTLVTVSS | high polyreactivity |
| QVQLVESGGGLVQAGRSLRLSCAASGLIFYCYVMGWYRQAPRKERELVAGISRNSGSTYYADSVKGRFTISRDNAKNTVYLQMNSLKPEDTAVYYCAKAYYRRYAAPGYDYWGQVTQVTVSS | low polyreactivity |
| QVQLVESGGGLVQAGRSLRLSCAASGLTFSAYAMGWYRQAPGKEREFVAAITDSDGSTYYADSVKGRFTITRDNAKNTVYLQMNSLKPEDTAVYYCAASGSWYYGNWSGGYDYWGQGTQVTVSS | low polyreactivity |
| QVQLVESGGGLVQAGRSLRLSCAASGRIFRQNAMGWYRPAPGKETELVAAIDWNGTSTYADSVKGRFTISRDNAKNTVYFQLNSLKPVDTAVYYCTARYGRTSPDGDYWGQGTQVTVSS | low polyreactivity |
| QVQLVESGGGLVQAGRSLRLSCAASGRNFTYYAMGWDRQAPGKERELVAAISGSAGSTYYADSVKGRFTISRDNAKNTVYLQMNSLKPEDTAVYYCNAVLVRQRDRGGYWGQGTQVTVSS | high polyreactivity |
| QVQLVESGGGLVQAGRSLRLSCAASGRTFGGNAMGWYRQAPGKERELVAAIDQSGGSTYYADSVKGRFTISRDNAKNTVYLQMNSLKPEDTAVYYCATHDGGTYYVREPNVKYDYWGQVTQVTVSS | low polyreactivity |
| QVQLVESGGGLVQAGRSLRLSCAASGRTMNGNAMGWYRQAPGKERELVAAITRGGSTYYADSVKGRFTISRDNEKNSVYLQMYSLKPEVTAVYYCAADARYTGYYYWGQGTQVTVSS | high polyreactivity |
| QVQLVESGGGLVQAGRSLRLSCAASGSIFPGNAMGWYRQAPGKERELVASINWSGGSTYYADSVKGRFTISRDNAKNTVYLQMNSLKPEDTAVYYCNADPGYYDYDYWGQVTQVTVSS | low polyreactivity |
| QVQLVESGGGLVQAGRSLRLSCAASGSIFRYYAMGWYRQAPGKERELVAAISSSGGSTYYADSVKGRFTISRDNAKNTVYLQMNSLKPEDTAVYYCAAVWLSGYGDNYWGQGTQVTVSS | high polyreactivity |
| QVQLVESGGGLVQAGRSLRLSCAASGSILGYYAMGWYRQAPGKERELVAITSGDSTYYADSVNGRFTISRDNAKNTVYLQMNSLKPEDTAVYYCAAEGQNEGYDYWGQGTKVTVSS | high polyreactivity |
| QVQLVESGGGLVQAGRSLRLSCAASGSTFPVNTMGWYRQAPGKERELVAAITKNGANTYYADSVKGRFTISRDNAKNTVYLQMNSLKPEYTAVYYCAALYVYGKSYSRWLVELDYWGQGTQVTVSS | low polyreactivity |
| QVQLVESGGGLVQAGRSLRLSCAASGSTFSSYGMGWYRQAPGKDRELDASITIRGGSTYYADSVKGRFTISRDNAKTTVCIQMNSLKPEDTAVYYCAADVTNRGTWVIYGYYYWGQGTQVTVSS | low polyreactivity |
| QVQLVESGGGLVQAGRSLRLSCAASGSTFVPYAMGWYRQAPGKERELVAAITTSGGNTYYADSVKGRFTISRDNAKNTVYLQMNSLKPEDTAVYYCAADTYRRFDYWGQGTQVTVSS | low polyreactivity |
| QVQLVESGGGLVQAGRSLRLSCAASGTFIGYAMVWYRQAPGKERELVAAIDESGGSTYYADSVKGRFTISRDNAKNTVYLQMNSLKPEDTAVYYCAAYRYYSDYDYWGQGTQVTVSS | low polyreactivity |
| QVQLVESGGGLVQAGRSLRLSCAASGTIFAFYAMGWYRQAPGIVRELVAAITWRGGRTTYADSVKGRFTISRDNAKNTVYLQMNSLKPEDTAVYYCAAVIHWWYATYDYWGQGTQVTVSS | high polyreactivity |
| QVQLVESGGGLVQAGSSLRLSCAASGSTFLYYAMGWYRQAPGKEREMVAAITSSGGRTYYADSVKGRFTNSRDNAKNTDYLQMNSLKPEDTAVYYCARGWPRREQSEYDYWGQGTQVTVSS | high polyreactivity |
| QVQLVESGGGLVQAGVRLRLSCAASGFTFAGTAMGWYRQAPGKERELVAAITSGGSTYYADSVKGRFTISRDNAKNTVYLQMNSLKPEDTAVYYCAALVFRGRSFTHDYWGQGTQVTLSS | high polyreactivity |
| QVQLVESGGGLVQAGVRLRLSCAASGITFYINAMGGYRQAPGKERELVAVIDSRGSSTFYADSVKGRFTISRDTAKNTVYLQMNSLKPEDTAVYYCAAEAPSWYDRQYDYCGQGTQVTVSS | low polyreactivity |
| QVQLVESGGGLVQAGVSIRLSCAASGSIYENNAMGRYRQAPGKERELVAGITWSGGSTRYADSVKGRFTISRDNAKNTVYLQMNSLKPEDTAVYYCATDDFTYVVAKDGDYWGQGTQVTVSS | low polyreactivity |
| QVQLVESGGGLVQAGVSLRISCAAAGFTFERYAMGWYRQAPGKERELVATISRRGGSTNYADSVKGRFTISRDNAKNTVYLQMNSLKPEDTAVYYCARTLYRGKSYHVHSKYDYWGQGTQVTVSS | high polyreactivity |
| QVQLVESGGGLVQAGVSLRISCAASGFTFPEYDMGWYRQAPGKERELVATISGNGGRTYYADSVKGRFTISRYNAKNTVYLQMNSLKPEDTAVYYCAALLYIRSVVYDYWGQGTQVTVSS | low polyreactivity |

| Sequence | polyreactivity (PSR sort gate) |
| --- | --- |
| QVQLVESGGGLVQAGVSLRLSCAASASTFTKYAMGWYRQAPGKERELVAAITASGGNTYYADSVKGRFTISRDNAKNTVYLQMYSLKPEDTAVYYCATGYHRWSSWALDYWGQGTQVTVSS | high polyreactivity |
| QVQLVESGGGLVQAGVSLRLSCAASGFILGYNAMGWYRQAPAKERELVAAITRGGSTYYADSVKGRFTISRDNSKNTVYLQMNSLKPEDTAVYYCAAAYRGYSSTLWLGHWGQGTQVTVSS | high polyreactivity |
| QVQLVESGGGLVQAGVSLRLSCAASGFISPKYGMGWYRQAPGKERELVAAITSSGGSTYYADSVKGRFTISRDNAKNTVYLQMNSLKPEDTAVYYCATRQVSRLYPYRYNYWGQGTQVTVSS | high polyreactivity |
| QVQLVESGGGLVQAGVSLRLSCAASGFTFDYYTMGWYRQAPGKEREFVAAITWNGGTTNYADSVKGRFTISRDNAKNTVYLQMNSLKPEDTAVYYCAATAYWYYSNDSGRSYDYWGQGTQVTVSS | low polyreactivity |
| QVQLVESGGGLVQAGVSLRLSCAASGFTFSRYGMGWYRQTPGKERELVAAITWSGGNTNYADSVKGRFTISRDNAKNTVYLQMNSLKPEDTAVYYCNAPRGYWSQSHFDYWGQGTQVNVSS | high polyreactivity |
| QVQLVESGGGLVQAGVSLRLSCAASGGIFADYAMGWYRQAPGKERELVAAISSGGNTNYADSVKGRFTISRDNAKNTVYLQMNSLKPEDTAVYYCNRDTSYYRYVYYEGNDYWGQGTQVTVSS | low polyreactivity |
| QVQLVESGGGLVQAGVSLRLSCAASGNTFRINTKLCYRQAPGKERDLVATITRRGGSTYYADSVKGRFTISRDNAMNTVYLQMNSLNPEDSAVYYCAARVRGTGVYGGYNYWGQGTQVTVSS | high polyreactivity |
| QVQLVESGGGLVQAGVSLRLSCAASGRIFGTNAMGWYRQAPGKERELVADITSGGSTNYADSVKGRFTISRDTAKNTVYLQMNSLKPEDTALYYCAADVIGDMRWYRDEYRGQGTQVTVSS | low polyreactivity |
| QVQLVESGGGLVQAGVSLRLSCAASGRIFYRYAMGWYRPPPVKERELVAGITSGGSTYYADSVKGRFTISRDNAKNTVYLQMMSLKPEDTAVYYCAAVSYRSRTHRYPATFAYGSWGQGTQETVSS | high polyreactivity |
| QVQLVESGGGLVQAGVSLRLSCAASGRTFYVNAMGWYRQAPGKERELVAAISYSDGITYYADSVKARFTISRDNAKNTVYLQMNSLKPEDTAVYYCAAEGYHYYSQRAGVDYWGQGTQVTVSS | high polyreactivity |
| QVQLVESGGGLVQAGVSLRLSCAASGSIFRWNAMGWYRQAPGKERELVAAITGSGGSTYYADSVKGRFTISRDNAKNTVYLQMNSLKPEDTAVYYCAAKSPRILLDYWGQGTQVTVSS | low polyreactivity |
| QVQLVESGGGLVQAGVSLRLSCAASGSIFSWNAMGWYRQAPGKERELVATITWNGGRTYYADSVKGRFTISRDNAKNTVYLQMNSLKPEDTAVYYCAARYYVYWTYPYRVLSYYYWGQGTQVTVSS | high polyreactivity |
| QVQLVESGGGLVQAGVSLRLSCAASGSIFYEYAMGWYRQAPGKEREFVAAISSSGGSTYYADSEKGRFTISRDNAKNSVYLQMNSLKPEDTAAYYCNAQVGGVSFEYDYWGQGTQVTVSS | low polyreactivity |
| QVQLVESGGGLVQAGVSLRLSCAASGSLFSANAMGWYRQAPGKERELVASITGDGSTNYADSVKGRFTISRDNAMNTVYLQMNSLKPEDTAVYYCAADIGSWYDYWGQGTQVTVSS | low polyreactivity |
| QVQLVESGGGLVQAGVSLRLSCAASGTFYYAMGWYRQAPGKEREFVAAISWRGGTTYYADSVKGRFTISRDNAKNTVYLQMNSLKPEDTAVYYCATAPYVTSRRYGPYEYWGQGTQVTVSS | low polyreactivity |
| QVQLVESGGGLVQAGVSLRLSCAGSGSIFRSYTMGWYRQAPGKERELVAAISYSGGRTYYADSVMGRFTISRDNAKNTVYLQLNSLKPEDTAVYYCARRYYVTGCVGYDYWGQGTQVTVSS | high polyreactivity |
| QVQLVESGGGLVQAGVSLRLSCPASGRTFGWYAMGWYRQAPGTERELVAAITSGTSTYYADSVKGRFTISRDNAKNTVYLQMNSLKPEDTAVYYCAVDRGISVGYTRFDYWGQGTQVSVSS | low polyreactivity |
| QVQLVESGGGLVQAGVSLRLSCSASGGTFPQYAMAWYRHAPGKEREFVADITSRGGTTYYADSVKGRFTISRDNAKNTVFLQMNRLKPEDTAVYFCAADNPADWWGLDYWGQGTQVTVSS | low polyreactivity |
| QVQLVESGGGLVQAGVSLRLSWAASGRTGVNAMGWYRQAPGKERGLVAAINTSVGRTYYADSVKGRFTISRDNAKNPVYLQMNCLKPEDTAVYYCNTDRLGAARYDDWGQGTQVTVSS | low polyreactivity |
| QVQLVESGGGLVQAGWSLRLSCAASGRTFTHAMGWYRQAPGKERELVADISSGGSPNYADSVKGRFTISRDNAKNSVYLQMNSLKREDTAVSYCAAVSGSLYGYSVDYWGQGTQVTGSS | low polyreactivity |
| QVQLVESGGGLVQARGILRLSCAASGIIFYTYAMGLYRQAPGKERELVAAITARTANTYYADSVKGRFTISRDNAKNTVYLQMNSLKPEDTAVYYCAAAIYSYRTPYYYWGQGTQVTVSS | high polyreactivity |

Reference: the nanobody polyreactivity screen of Harvey et al. (2022)
